From patent US20240368258A1 (RUTGERS THE STATE UNIVERSITY OF NEW JERSEY, published 2024)

Experiments:
[1] = molecular target: T1, EphA5 expressed on H460 human lung carcinoma cells (human, UniProt P54756 25-1037); assay: whole cell phage-ELISA, monovalent phage on H460 cells
T1 construct: whole, on cells; H226 cells served as the EphA5-negative cell line; also called native EphA5 target; endogenous EphA5 expressed on the cell surface
Method: (§1) Single scFv clones were produced as monovalent phage and tested for binding on H460 human lung carcinoma (EphA5 positive) and H226 human lung squamous cell carcinoma (EphA5 negative) cell lines in vitro. Briefly, cells were seeded on 96-well plate, blocked and incubated with phage displaying the scFv of interest at different concentrations. After washing, cell surface bound phage were detected with the antiM13-HRP conjugated mAb (GE).

[2] = molecular target: T2, GRP78 on the surface of MCF-7 human breast cancer cells (human, UniProt P11021 19-654); assay: whole cell phage-ELISA, monovalent phage on MCF-7 cells
T2 construct: whole, on cells; also called surface GRP78; 78 kDa glucose-regulated protein
Method: as §1, with “FIG. 8. Phage binding on cells. […] Single” for “Single”, “MCF-7” for “H460 human lung carcinoma (EphA5 positive) and H226 human lung squamous cell carcinoma (EphA5 negative) cell lines”
Single scFv clones were produced as monovalent phage and tested for binding on MCF-7 in vitro. Briefly, cells were seeded on 96-well plate, blocked and incubated with phage displaying the scFv of interest at different concentrations. After washing, cell surface bound phage were detected with the antiM13-HRP conjugated mAb (GE). […] Anti-GRP78 phage bind specifically to cells expressing surface GRP78.

T1 sequence (P54756 25-1037): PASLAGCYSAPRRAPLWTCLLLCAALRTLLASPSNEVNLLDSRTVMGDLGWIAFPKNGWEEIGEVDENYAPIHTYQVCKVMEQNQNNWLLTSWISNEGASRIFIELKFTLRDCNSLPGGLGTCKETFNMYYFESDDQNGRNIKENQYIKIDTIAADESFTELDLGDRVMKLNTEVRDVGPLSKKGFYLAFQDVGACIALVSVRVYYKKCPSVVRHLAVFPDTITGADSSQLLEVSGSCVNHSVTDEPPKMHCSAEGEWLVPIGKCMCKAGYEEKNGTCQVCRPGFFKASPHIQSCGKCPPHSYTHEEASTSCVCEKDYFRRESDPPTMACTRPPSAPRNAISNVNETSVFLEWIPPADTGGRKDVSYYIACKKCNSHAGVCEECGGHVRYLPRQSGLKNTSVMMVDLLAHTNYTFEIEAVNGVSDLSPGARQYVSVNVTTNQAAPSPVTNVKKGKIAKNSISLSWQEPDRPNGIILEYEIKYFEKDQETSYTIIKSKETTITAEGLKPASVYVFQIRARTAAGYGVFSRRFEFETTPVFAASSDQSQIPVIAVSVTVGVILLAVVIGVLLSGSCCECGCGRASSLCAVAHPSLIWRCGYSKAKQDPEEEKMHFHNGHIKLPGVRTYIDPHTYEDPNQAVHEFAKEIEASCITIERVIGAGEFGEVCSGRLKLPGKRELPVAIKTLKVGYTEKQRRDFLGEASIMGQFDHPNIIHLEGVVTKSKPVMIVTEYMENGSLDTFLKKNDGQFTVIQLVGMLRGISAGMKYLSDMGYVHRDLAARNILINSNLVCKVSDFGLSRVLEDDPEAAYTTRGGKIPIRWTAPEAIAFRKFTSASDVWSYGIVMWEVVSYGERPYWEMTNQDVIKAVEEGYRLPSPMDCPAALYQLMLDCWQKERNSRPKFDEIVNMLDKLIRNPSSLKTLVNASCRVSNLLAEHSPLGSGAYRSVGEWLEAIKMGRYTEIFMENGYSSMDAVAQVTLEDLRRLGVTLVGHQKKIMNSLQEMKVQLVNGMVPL
T2 sequence (P11021 19-654): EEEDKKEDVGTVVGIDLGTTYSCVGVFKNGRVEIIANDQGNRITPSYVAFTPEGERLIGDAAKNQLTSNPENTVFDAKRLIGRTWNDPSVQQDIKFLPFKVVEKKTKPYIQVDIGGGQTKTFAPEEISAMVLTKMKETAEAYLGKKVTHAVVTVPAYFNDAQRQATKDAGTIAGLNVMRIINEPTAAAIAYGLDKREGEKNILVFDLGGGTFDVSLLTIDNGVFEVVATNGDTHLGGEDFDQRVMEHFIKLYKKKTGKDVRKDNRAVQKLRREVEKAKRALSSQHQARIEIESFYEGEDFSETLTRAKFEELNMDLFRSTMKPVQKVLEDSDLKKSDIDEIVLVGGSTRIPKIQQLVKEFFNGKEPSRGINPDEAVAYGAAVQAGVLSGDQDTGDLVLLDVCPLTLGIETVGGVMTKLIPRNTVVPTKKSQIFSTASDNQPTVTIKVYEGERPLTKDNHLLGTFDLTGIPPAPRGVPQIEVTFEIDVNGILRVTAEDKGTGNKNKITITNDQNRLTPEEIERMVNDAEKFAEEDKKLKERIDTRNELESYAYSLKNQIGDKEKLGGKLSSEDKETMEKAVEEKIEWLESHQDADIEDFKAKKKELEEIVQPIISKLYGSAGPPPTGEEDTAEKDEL

Binder | binding result [1] | binding result [2]
antiEphA5_T22 scFv (scFv) scFv: QPVLTQSSSLSASPGASVSLTCTLRSGINVGPYRMYWYQQKPGSPPQYLLSYKSDSDTQQASGVPSRFSGSKDASANAGILLISGLQSEDEADYYCMIWHNNAVVFGGGTKLTVLSGGSTITSYNVYYTKLSSSGTQVQLVQSGTEVKKPGASVKVSCKVSGYSLSELSMHWVRQAPGKGLEWMGSFDPEDGETTYAQRFQGRVTMTEDTSTDTAYMELRSLTSDDTAVYYCAREIWSGYAYFDLWGRGTLVTVSS | binds | –
antiGRP78_F6 scFv (scFv) scFv: SYELTQPHSVSVAPGQTARITCGGDNIGSKSVHWYQQRPGQAPVLVVYDDSDRPSGIPERFSGSNSENTATLTISGVEAGDEADYYCQVWDSTSHHVVFGGGTKLTVLSGGSTITSYNVYYTKLSSSGTQVQLQQSGPGLVKPPQTLSLTCAISGDSVSSNSAAWNWIRQSPSRGLEWLGRTYYRSKWYNDYAVSVKSRITINPDTSKNQFSLQLNSVTPEDTAVYYCARDPYYYDSSGYYYFDAFDIWGQGTMVTVSS | – | binds
antiEphA5_F31 scFv (scFv) scFv: SYELTQPPSVSVAPGKTARITCEGNNIGSKGVHWYQQKPGQAPALVVYDGSDRPSGIPERFSGSNSGNTATLTISRVEAGDEADYYCQVWDNSSDHPNYVFGTRTKLTVLSGGSTKTSYNVYYTKLSSSGTQVQLVETGGGLVQPGGSLRLSCAASGFTFSSYAMSWVRQAPGKGLEWVSAISGSGGSTYYADSVKGRFTISRDNSKNTLYLQMNSLRAEDTAVYYCARVAAGDYWGQGTLVTVSS | binds | –
antiGRP78_B4 scFv (scFv) scFv: SYVLTQPPSVSVAPGKTATITCGGDDIGSKSVHWYQQKPGQAPVLVVYDDGDRPSGIPERFSGSNSGNTATLAISRVEAGDEADYYCQVWDSSSDQYVFGSGTKLTVLSGGSTITSYNVYYTKLSSSGTQVRLQESGPGLVKPSQTLSLTCTVSGGSISSGGYYWSWIRQHPGKGLEWIGYIYYSGSTYYNPSLESRVTISVDTSKNQFSLKLSSVTAADTAVYYCARYSSIDAFEIWGQGTMVTVSS | – | binds
